# In paper PMC4944999 (PLoS ONE, 2016):
# Molecular target: PeB^GF-Lys, double substituted variant ([change], [change]) of PeB-Lys (mouse)
# Test: SPR
substance,measurement,value
"hemagglutinin (HA) of influenza A/NewYork/55/2004 H3N2, in monovalent split vaccine (natural protein)",fold amount of hemagglutinin bound compared to PeB,4 fold
